Assay results from the DeepSol protein solubility set.

Assay: soluble on expression in E. coli; label from the status in PepcDB or PDB records

Soluble on expression in E. coli, not soluble:
MQDFDFSFNPKACEGCGAKCCVGESGYIFLNIQEMQQISAFLKLELEEFSQKYVKKVGYKFSLLEKDAKELGLACVFLDLETKKCQIYSVRPKQCQTFPFWEGVKTFSKEQKEAFCQSCPGITQKTKETKVRLEHHHHHH, MQDLSAVKAFHALCQHKSLTAAAKALEQPKSTLSRRLAQLEEDLGQSLLMRQGNRLTLTKAGEVFAVYSEQLLELANKSQEALQELNNQVTGELTLVVHPNLIRGWLSQVLDEFMQQHSTLKIRLLSQFQHSDEVFEPDLIIWIEHAAPMGYRKERLGYWRYAAYASPKYLAHRDKPTHPRELIHHPWIDFIACRRAELELHHPEFGSYSLPALESRLQSDNLAMQADAIAKGRGIGLLPTWFANGFETAHPGSLIPCVNGWQSQPTEINCFYPLGRHPLRLRLFIDALRQARPDEWQ, MQESAQFFNDTGVSMSMQGFHNEAIACLKKGLALEPDNSLMWLNLGLSYYAAKRQNDSKFALFQSLKYNPYEADAWDSLGLVLFETGDIDQAERAFESAIKLEPENGRVWNNYGTVLFNKENYRAARRAFESAVTLDPEMGDAVFNLRDTYLELGMNDLAERCNKILKEMDYQE, MQFTDGGKEVELRLRLKTGEILSPKDISVDADGTSLAVKEKRNGLLITLLETNHLFEKIMPSETIWYIDEDQLVVNMKKVDGELKWPDIVESWESLTAGMMQLLKGASIYIVGDSTEINQKVSRELAVGLGYSPLDSKELLESFSKQTIDSWILAEGPDSVAEAESSVLESLSSHVRTVVSTLGGKHGAAGRADQWRHLYSGFTVWVSQTEATDEESAKEEARRSKQEREIGYSNADVVVKLQGWDPTHAKSVAQASLSALKQLIISDKGLPGNK, MQGTRVMHIFVLSKRKITMNVDNVKSQMRKGMLEYCIMLLLHKEPAYASDIIQKLKEAQLIVVEGTLYPLLTRLKNDDLLSYEWVESTQGPPRKYYKLTEKGEAFLGELEISWKELNETVNHIASR, MQGVLAGLPSGIPGIGLEIEGAVQHAPQPGRHSIRCSLKVNHRIDERAQYHLFCTSKSANTTCPKGPSRVLCRDIFDIFDYRNFSMPRANEIKKGMVLNYNGKLLLAKDIDIQSPTARGAATLYKMRFSDVRTGLKVEERFKGDDIVDTVTLTRRYVDFSYVDGNEYVFMDKEDYTPYTFTKDQIEEELLFMPEGGMPDMQVLTWDGQLLALELPQTVDLEIVETAPGIKGASASARNKPATLSTGLVIQVPEYLSPGEKIRIHIEERRYMGRAD, MQIIRRLMFVVALICPLITQAEPQVAKLYQRELTRNSYAIGGLNAPVALFAAQVHQESQWNVTALSHVGAQGLAQFMPQTANWIATQYPELKTNQPFNPSWALRALVRYDYWLYQRIHAVTDCDRWAFALSAYNGGLGWVQRDKRKARIQGLDPMSYWHAVESVNSGRSRANFIENRGYPKRIIYRWQPLYLHWGNSVCLDD, MQIITTTFIQKVILGSHQLHEQLSIVEARMIESAIVSMLTESFCENEQTLKYLARLLSPMSYMDVINARRGKKICGYPLCYKSAAENSSDGFFIHSMYCNNYHSKCSLYLMRQLSQTPLHERRGVHLTSYINLEFDDMYSVSLLEELVGSEVPIDTVKSLITSFKDLEFDDTYKNEPLPLDVYFGQLTTDEETCIE, MQIYLSTLTELDYDKSLNSIEESFDDNPETSWQARAKVKHLRKSPCYNFELEVIAKNENNDVVGHVLLIEVEINSDDKTYYGLAIASLSVHPELRGQKLGRGLVQAVEERAKAQEYSTVVVDHCFDYFEKLGYQNAAEHDIKLEFGDAPLLVKYLWDNLTDAPHGIVKFPEHFY, MQKEFFQELQDILYEKNITIKFHSFQNFYEDFKSHKFIFNHEHQSIFKKNTSQQITLFHPTRIRRPKFLNSTHALAKIIHSVAHIEFNAINLALDASYRFKNLPLQFYYDWLEVADEEIKHFKLLNSALEELGYKYGDFPVHDNLESALEATKDSLSFRMGIVHRGLEAKGLDANPFVVQKLQSSNHSIKNLLMEYLEIILNDEIKHVKKGDTWWKFANQNKYNFIELCKTFKQFSLAGKKLNIQARIKAGFTQEECEVIEKFYSLEHHHHHH, MQKGVYIMNSTSSIITIGREYGSGGRQIGQEVAKYFGIKCYDKELLEHAANDSGICKELFEHHDEKPTNSFLYSLVMDTYSFGYSSSGFSDMPMNHKIFLAQFDAIKKLAGEGPCVMVGRCADYALADWNDCFSIFVHADLDWRINRIASKHGKTPKEAKDMITKTDKSRASYYNYYTNKKWGAARSYNLCIDSGKLGIDYATEAIIESIKIFDRTKISK, MQKKYYEDSHQDSYLLGVKEKDEVLLTALMRKIKNHTGDVYEIMGGPLVDFENENNNQIIAFFLKELHKYLKKQHAYYLRIVPNEKTQRVENNGKVVNYDLKNYSSLYFAEGFIYRSFEQVGYGFATPHYEYQKRIEGLNKKTLFQSYSKKTQYSIKKTYEFGITTRNISYDELEMFHENTTKTAKRLGFYDKELSYYQSVYRTFGDNAKFMIAEINLSDYIGHFQEIIRNLKDKIDQMILIDSKREKPTKTRQIKELRSQVEQHEKRIVQAKKLIEQYGKKINLAGALFFIQPQEVSYMFSYTNAEFKNFYGPYRTQADMLEFALKEKVPVYNFYGVSGDRSGHDGVYEFKKGFQGYMVDNMGAFILPINKFRYQFLQTIKKIIRRR, MQKMDCQAIGYGYIIIPKALLKEQLIDCSPHEGEIEAFLKLLVKVNYSETKLTDHQRRTIVCKRGESLHSYRSWSAIFHWPTSRTYRFIQQLKTNGIIEIIPHNDTTALHIRVVNYENWTNISALLNEKKENTQKASNEKFRLFWDDYHNILQLPKENIAKAQRIWKKLSEKEQQLAIDHIEEYYYHQTNMKFTLHACSYLSNKAFLNEYEY, MQKQLLLGVEAIAQAALDAGISGVYAYPGTPSTEITEHIQNSRMAKERNVHREWAANEKTAMESALGMSYAGKRALVCMKHVGMNVAADCFMNAAITGANGGMVIVAADDPSMHSSQNEQDSRVYGQFAMIPVMEPSNQQEAYDMTRLAFDLSERLGTPVMMRITTRLAHSRAGVVQTEPIGENELHLP, MQLKRKNSVFIDPRIQEVAGPCEPSDNGNNEEEDKIISIRATASSASITKESVPEAPPTHFIPVVVTVEPDAWEKFRDIIQVNRNIVIVKVGRWLMSSFMPGDQISLVNGTAIWNSDDLENQVRGPKKETKTEVTVIRVWNLKCLTDIQLDKLLVPPEEQLHYFSVKVYSSKGTIGLKLCLDKKRVLVELIRAKTPVNSALLVGDQILGINDELLTAKSKRALRKQVAEVMKKSIKKQGFAEIIACRQVIARSSPAPSLEAELSEKFANYAVGVEKGTRIEKKDSSETNSLPLHSDALEIALRELACLKQWIVESSTEVPPCDKGPTLMIDPPTAPGSAEGCPPPLVKAKSTTNAIERSVYFPLSTTAAVAILVSTPKKRSIFRQQDRNSAINFAEQPDHEKITSDIPEEDDLKKCEPMSGIAAYIKKKFN, MQLQPFSQACENNKVPILAVLKSAFANTTRVLEIGSGTGQHAVYFATNLPQLFWQTSDQAEYLEGIKARCLLQGHQLGINNLGFPITLDVTAPWPVNGTHIDAVFSANTLHIMSKSMVEAFFNGLGEYLPQLNTLCIYGPFNYQGHYTSDSNRQFDHFLKQRDSESGIRDIEWIIALAQAQGLTLVEDIAMPTNNRLLHFKHLLALEHHHHHH, MQMCFSKSAQHHSKVKQRNSLLEIMENCFEMMVARCIKIGTVQTLTMLGLLPEVVTISQAEDIYGKRLITEWREKAWIKFYPANNKERGKYYVKRSELETASAMMDLHNKVPDNIIKQLMQLTV

Soluble on expression in E. coli, soluble:
MQDADKLPHTKVTLVAPPQVHPHEQATKSGPKVVEFTMTIEEKKMVIDDKGTTLQAMTFNGSMPGPTLVVHEGDYVQLTLVNPATNAMPHNVDFHGATGALGGAKLTNVNPGEQATLRFKADRSGTFVYHCAPEGMVPWHVVSGMSGTLMVLPRDGLKDPQGKPLHYDRAYTIGEFDLYIPKGPDGKYKDYATLAESYGDTVQVMRTLTPSHIVFNGKVGALTGANALTAKVGETVLLIHSQANRDTRPHLIGGHGDWVWETGKFANPPQRDLETWFIRGGSAGAALYTFKQPGVYAYLNHNLIEAFELGAAGHIKVEGKWNDDLMKQIKAPAPIPR, MQDEYYMARALKLAQRGRFTTHPNPNVGCVIVKDGEIVGEGYHQRAGEPHAEVHALRMAGEKAKGATAYVTLEPCSHHGRTPPCCDALIAAGVARVVASMQDPNPQVAGRGLYRLQQAGIDVSHGLMMSEAEQLNKGFLKRMRTGFPYIQLKLGASLDGRTAMASGESQWITSPQARRDVQLLRAQSHAILTSSATVLADDPALTVRWSELDEQTQALYPQQNLRQPIRIVIDSQNRVTPVHRIVQQPGETWFARTQEDSREWPETVRTLLIPEHKGHLDLVVLMMQLGKQQINSIWVEAGPTLAGALLQAGLVDELIVYIAPKLLGSDARGLCTLPGLEKLADAPQFKFKEIRHVGPDVCLHLVGA, MQEVPPDFEDVHIAEARVDVPSTWRDQIVNTNAVATETHPLKCAEVETQTGSKDNQGTQTDDAGGGRPPSPSKVQASGVADFMAKVEGMVAGELVKATEEHEVLEPFTRAADDEQEPATCIHYLSPFQQDAAANQDLNAT, MQGKALQDFVIDKIDDLKGQDIIALDVQGKSSITDCMIICTGTSSRHVMSIADHVVQESRAAGLLPLGVEGENSADWIVVDLGDVIVHVMQEESRRLYELEKLWS, MQLFDLSLEELKKYKPKKTARPDFSDFWKKSLEELRQVEAEPTLESYDYPVKGVKVYRLTYQSFGHSKIEGFYAVPDQTGPHPALVRFHGYNASYDGGIHDIVNWALHGYATFGMLVRGQGGSEDTSVTPGGHALGWMTKGILSKDTYYYRGVYLDAVRALEVIQSFPEVDEHRIGVIGGAQGGALAIAAAALSDIPKVVVADYPYLSNFERAVDVALEQPYLEINSYFRRNSDPKVEEKAFETLSYFDLINLAGWVKQPTLMAIGLIDKITPPSTVFAAYNHLETDKDLKVYRYFGHEFIPAFQTEKLSFLQKHLLLST, MQNAEKLDFKITGGWIIDGTGAPRRRADLGVRDGRIAAIGELGAHPARHAWDASGKIVAPGFIDVHGHDDLMFVEKPDLRWKTSQGITTVVVGNCGVSAAPAPLPGNTAAALALLGETPLFADVPAYFAALDAQRPMINVAALVGHANLRLAAMRDPQAAPTAAEQQAMQDMLQAALEAGAVGFSTGLAYQPGAVAQAAELEGLARVAAERRRLHTSHIRNEADGVEAAVEEVLAIGRGTGCATVVSHHKCMMPQNWGRSRATLANIDRAREQGVEVALDIYPYPGSSTILIPERAETIDDIRITWSTPHPECSGEYLADIAARWGCDKTTAARRLAPAGAIYFAMDEDEVKRIFQHPCCMVGSDGLPNDARPHPRLWGSFTRVLGRYVREARLMTLEQAVARMTALPARVFGFAERGVLQPGAWADVVVFDPDTVADRATWDEPTLASVGIAGVLVNGAEVFPQPPADGRPGQVLRAGA, MQNISIAENNRTGIPVQSLSYEQAAKGPTGSIMTEGYAKAIANYAYVWGWPMVNMHNRREAFKQVPYQGYIGGAMPAAPINHLTMLSDYVSPNMRDVAHPNQDVVYGFGMLSLDKEPVVIQVPDFGDRFWTVMAEDQRTDSFAQLSSIYDSKPGFYMIVSPEWDGEIPEGINKVFRSSTDLAVVIPRVFMDDTAEDREAIQSVVNQLGAYPLSEFTGIMKITNWKSLPNIPEAKKTKSEKTWVNPNMFFSAEQLGKVLEEVSPLPGEEAMYAQFKELLLQAEENKELQKILNDVANEAEMNIVTPLFRLENVGKEINNYWTRPQDNGRFGTDYLTRLAVAKSNIFTNDVTETSYLYQYKDENGTRINGNHNYTLTFKKGELPPVDGFWSLTMYNSNHFFVPNDIKRYSIGTKNKGMKYNKDGSLTIYIQNEKPSEDKIGNWLPAPKDDIAMTIRAYGPKEEMLSGTWQPPAVVKIKLEHHHHHH
